# Source: patent US20220249621A1
# Target: EphB4 on CD4+ T cells isolated from the spleens of tumor-bearing mice (mouse) (UniProt P54761)
# Experiment: cell-based or functional assay
# Chain of UniProt P54761 (P54761 16-987): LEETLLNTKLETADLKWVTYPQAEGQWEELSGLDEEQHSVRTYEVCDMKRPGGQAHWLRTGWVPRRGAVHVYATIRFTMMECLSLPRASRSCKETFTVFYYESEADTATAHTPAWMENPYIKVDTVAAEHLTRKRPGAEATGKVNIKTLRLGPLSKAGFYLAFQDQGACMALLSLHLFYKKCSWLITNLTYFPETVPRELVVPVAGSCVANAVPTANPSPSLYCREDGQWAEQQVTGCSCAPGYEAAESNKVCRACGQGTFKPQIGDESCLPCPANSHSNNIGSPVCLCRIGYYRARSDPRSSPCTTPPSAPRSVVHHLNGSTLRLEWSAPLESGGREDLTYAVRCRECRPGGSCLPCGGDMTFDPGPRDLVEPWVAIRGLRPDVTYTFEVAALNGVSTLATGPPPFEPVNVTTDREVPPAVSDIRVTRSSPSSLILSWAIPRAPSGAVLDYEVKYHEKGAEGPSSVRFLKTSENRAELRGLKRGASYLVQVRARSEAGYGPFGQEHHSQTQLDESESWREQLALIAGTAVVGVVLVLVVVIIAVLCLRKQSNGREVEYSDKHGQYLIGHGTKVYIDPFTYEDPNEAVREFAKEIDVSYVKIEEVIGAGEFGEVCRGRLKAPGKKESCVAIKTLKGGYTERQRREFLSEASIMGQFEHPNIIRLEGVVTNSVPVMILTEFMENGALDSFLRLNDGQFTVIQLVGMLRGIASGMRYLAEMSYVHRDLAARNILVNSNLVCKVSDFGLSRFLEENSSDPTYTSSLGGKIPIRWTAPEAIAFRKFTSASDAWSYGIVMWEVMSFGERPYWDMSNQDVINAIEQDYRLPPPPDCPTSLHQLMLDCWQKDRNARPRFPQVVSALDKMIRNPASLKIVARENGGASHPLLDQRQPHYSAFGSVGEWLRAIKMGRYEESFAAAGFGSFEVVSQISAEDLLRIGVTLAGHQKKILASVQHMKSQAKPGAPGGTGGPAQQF
substance,measurement,value
recombinant ephrin-B2-Fc (Fc fusion),fold decrease in Ki67 expressing Tregs (flow cytometry),1.7 fold
